# Experiments:
# Assay type in all cases: cell-based
# [1] = tested on: chemokine CXCR1 and dopamine D2 receptor; assay: Calcium mobilization assay in COS7 cells cotransfected with receptor and Gα16 constructs; conditions: CXCR1 (interleukin 8) and D2 ((−)quinpirole) receptors, FIG. 13
# Experimental: 24 h after transfection, COS7 cells were split into 96 well plates at a density of ˜30,000 cells per well. 18-24 h later cells were loaded with a calcium sensitive dye (calcium assay kit from Molecular devices) for 1 h (37 C, 5% CO2) and then for 1 h at room temperature. Ligands were transferred to the cell plate from the sample plate using the Novostar's integrated pipette. To obtain the specific fluorescence response, baseline fluorescence counts before addition of ligands were subtracted from the peak of the calcium response Specific responses were used to plot the concentration response curve.
# Murine Wild type Gα16 was cloned as described above. […] was prepared with the Stratagene quick change mutagenesis kit according to the manufacturers instructions. The correctness of all PCR-derived sequences was verified by sequencing in both directions.
# COS7 cells were grown and transfected as described above.
# 24 h after transfection, COS7 cells were split into 96 well plates at a density of […] cells per well. 18-24 h later cells were loaded with a calcium sensitive dye (calcium assay kit from Molecular devices) for 1 h (37 C, 5% CO2) and then for 1 h at room temperature. […] To obtain the specific fluorescence response, baseline fluorescence counts before addition of ligands were subtracted from the peak of the calcium response. […]
# phospholipase Cβ [2] = assay: Basal IP formation in COS7 cells transfected with Gα subunit alone (constitutive activity); conditions: no receptor, no ligand, FIG. 6
# Experimental: Basal IP3 formation was determined in COS7 cells transiently transfected with vector DNA, Gαqwt, GαqG66D and the constitutively active Gα15Q212L mutant as described in detail in the Examples. Data represent mean values±SEM of 4 independent experiments performed in duplicate.
# COS7 cells were grown in Dulbecco's modified Eagles medium supplemented with 10% (vol/vol) fetal calf serum, Penicillin-Streptomycin (10000 IU/ml-10000 μg/ml) and 2 mM L-Glutamin in a humidified 5% CO2 incubator. For transfections, 1×10^6 cells were seeded into 100-mm dishes. About 24 h later, cells were cotransfected with the indicated G protein and receptor constructs (1:1 ratio) by using the Fugene transfection reagent as per manufacturer's instructions.
# (§1) 18-24 h after transfections cells were split into 35 mm dishes in culture medium supplemented with 3 μCi/ml [3H]myo-inositol (20 Ci/mmol: Amersham). […] Cells were then stimulated in the same buffer with the appropriate agonist ligands for 45 min (37° C.), and increases in intracellular inositolphosphate determined by anion exchange chromatography as described (Kostenis et al., 1997)
# To test whether the mutant Gαq subunit differs from Gαq wt in its ability to signal to phospholipase Cβ, plasmids encoding the respective cDNAs were transiently transfected into COS7 cells and IP1 accumulation was measured.
# phospholipase Cβ [3] = assay: PI-hydrolysis assay in COS7 cells cotransfected with receptor and mutant/chimeric Gαq subunits (Example 3)
# Source text: Murine wild type Gαq was cloned from mouse brain by RT-PCR and inserted into the BamHI-NslI-sites of pcDNA1.1. All wild type and mutant Gα subunits contained an internal hemagglutinin epitope tag DVPDYA (Wedegaertner et al., 1993) replacing Gαqwt residues 125-130. To create the C-terminally modified Gαqi5 subunit, in which the last five aa of wt Gαq were replaced with the corresponding Gαi sequence, a 175-bp BglII-NslI fragment was replaced, in a two piece ligation, with a synthetic DNA fragment, containing the desired codon changes. Gαqs5/z5 were prepared in an analogous fashion. GαqG66x mutants were prepared with the Stratagene quick change mutagenesis kit according to the manufacturer's instructions. To generate GαqG66Xi5/s5/z5(X=D,V,N,K), a 175 bp BglII-NsiI fragment was removed from GαqG66X and replaced with the corresponding BglII-NsiI fragment of Gαqi5 and Gαqs5/z5, respectively. The correctness of all PCR-derived sequences was verified by sequencing in both directions. […]
# as §1, with “splitted” for “split”, “35-mm” for “35 mm”, “Ci/mmol;” for “Ci/mmol:”, “1 h” for “45 min”, “1997).” for “1997)”
molecule,measurement,setting,value
"Gα16: Murine wild type Gα16 (protein, UniProt P30678 1-374, looked up) Guanine nucleotide-binding …: MARSLTWGCCPWCLTEEEKTAARIDQEINRILLEQKKQEREELKLLLLGPGESGKSTFIKQMRIIHGVGYSEEDRRAFRLLIYQNIFVSMQAMIDAMDRLQIPFSRPDSKQHASLVMTQDPYKVSTFEKPYAVAMQYLWRDAGIRACYERRREFHLLDSAVYYLSHLERISEDSYIPTAQDVLRSRMPTTGINEYCFSVKKTKLRIVDVGGQRSERRKWIHCFENVIALIYLASLSEYDQCLEENDQENRMEESLALFSTILELPWFKSTSVILFLNKTDILEDKIHTSHLATYFPSFQGPRRDAEAAKSFILDMYARVYASCAEPQDGGRKGSRARRFFAHFTCATDTQSVRSVFKDVRDSVLARYLDEINLL",agonist-induced intracellular calcium mobilization,[1],gain the ability to stimulate calcium mobilization
"Gα15Q212L: GTPase defective, constitutively active Gα15 mutant replacing Glutamine 212 by Leucine (protein, UniProt P30678 1-374, looked up, variant Q212L) Guanine nucleotide-binding …: MARSLTWGCCPWCLTEEEKTAARIDQEINRILLEQKKQEREELKLLLLGPGESGKSTFIKQMRIIHGVGYSEEDRRAFRLLIYQNIFVSMQAMIDAMDRLQIPFSRPDSKQHASLVMTQDPYKVSTFEKPYAVAMQYLWRDAGIRACYERRREFHLLDSAVYYLSHLERISEDSYIPTAQDVLRSRMPTTGINEYCFSVKKTKLRIVDVGGLRSERRKWIHCFENVIALIYLASLSEYDQCLEENDQENRMEESLALFSTILELPWFKSTSVILFLNKTDILEDKIHTSHLATYFPSFQGPRRDAEAAKSFILDMYARVYASCAEPQDGGRKGSRARRFFAHFTCATDTQSVRSVFKDVRDSVLARYLDEINLL",basal IP1 accumulation / ability to activate PLCβ (constitutive activity),phospholipase Cβ [2],robust IP1 increase
"GαqG66Di5: Gαq combining G66D linker I mutation with C-terminal five amino acids of Gαi; SEQ ID No. 6 (protein, listed as Mus musculus, (66)..(66) Xaa is selected from the group consisting of Asp, Val, Asn and Lys) MTLESIMACCLSEEAKEARRINDEIERHVRRDKRDARRELKLLLLGTGESGKSTFIKQMRIIHGSXYSDEDKRGFTKLVYQNIFTAMQAMIRAMDTLKIPYKYEHNKAHAQLVREVDVEKVSAFENPYVDAIKSLWNDPGIQECYDRRREYQLSDSTKYYLNDLDRVADPSYLPTQQDVLRVRVPTTGIIEYPFDLQSVIFRMVDVGGQRSERRKWIHCFENVTSIMFLVALSEYDQVLVESDNENRMEESKALFRTIITYPWFQNSSVILFLNKKDLLEEKIMYSHLVDYFPEYDGPQRDAQAAREFILKMFVDLNPDSDKIIYSHFTCATDTENIRFVFAAVKDTILQLNLKDCGLF",agonist-induced IP3 / PLCβ activity,"phospholipase Cβ [3]; Gi/o coupled receptors CXCR2, CCR5, SSTR1, KOR, GPR7, HM74a, NPY4, M2, P2Y12, FIG. 11",robust IP3 increases exceeding those observed upon coexpression with the C-terminal or the G66D mutant alone
"GαqG66Ds5: Gαq combining G66D linker I mutation with C-terminal five amino acids of Gαs; SEQ ID No. 7 (protein, listed as Mus musculus, (66)..(66) Xaa is selected from the group consisting of Asp, Val, Asn and Lys) MTLESIMACCLSEEAKEARRINDEIERHVRRDKRDARRELKLLLLGTGESGKSTFIKQMRIIHGSXYSDEDKRGFTKLVYQNIFTAMQAMIRAMDTLKIPYKYEHNKAHAQLVREVDVEKVSAFENPYVDAIKSLWNDPGIQECYDRRREYQLSDSTKYYLNDLDRVADPSYLPTQQDVLRVRVPTTGIIEYPFDLQSVIFRMVDVGGQRSERRKWIHCFENVTSIMFLVALSEYDQVLVESDNENRMEESKALFRTIITYPWFQNSSVILFLNKKDLLEEKIMYSHLVDYFPEYDGPQRDAQAAREFILKMFVDLNPDSDKIIYSHFTCATDTENIRFVFAAVKDTILQLNLKQYELL",response (stimulation of PLCβ) versus individual mutants,"phospholipase Cβ [3]; coexpressed non-Gq-selective receptor, Gs-linked GLP1, GIP, DP, adrenergic β2 (FIG. 12)",robust response exceeding the response observed upon coexpression with the C-terminal or the GαwG66D mutant alone
"Gα16G69D: Gα16 with glycine 69 to aspartate mutation in linker I; SEQ ID No 5 (protein, listed as Homo sapiens, (69)..(69) Xaa is selected from the group consisting of Asp, Val, Asn and Lys) MARSLTWRCCPWCLTEDEKAAARVDQEINRILLEQKKQDRGELKLLLLGPGESGKSTFIKQMRIIHGAXYSEEERKGFRPLVYQNIFVSMRAMIEAMERLQIPFSRPESKHHASLVMSQDPYKVTTFEKRYAAAMQWLWRDAGIRACYERRREFHLLDSAVYYLSHLERITEEGYVPTAQDVLRSRMPTTGINEYCFSVQKTNLRIVDVGGQKSERKKWIHCFENVIALIYLASLSEYDQCLEENNQENRMKESLALFGTILELPWFKSTSVILFLNKTDILEEKIPTSHLATYFPSFQGPKQDAEAAKRFILDMYTRMYTGCVDGPEGSKKGARSRRLFSHYTCATDTQNIRKVFKDVRDSVLARYLDEINLL",agonist-induced intracellular calcium mobilization,[1],significantly increased

# — patent publication US20050042720A1, “Novel promiscuous G alpha protein mutants and their use” (7TM Pharma A/S, priority 2003, published 2005)
